Experimental data from US20250352659A1, “SELF-STABILIZING LINKER CONJUGATES” (priority 2023, published 2025).

How the values were obtained:
Assay type in all cases: physicochemical
[1] = Conjugator-antibody conjugate maleimide hydrolysis (ring opening) kinetics by reduced LCMS
Experimental: After the conjugation step, the ADC (or conjugator-antibody conjugate) was subjected to buffer exchange into ring opening buffer (pH 6.5˜9.0, PBS, borate or tris buffer) and the solution was left at 22 or 37° C. for 1˜48 h. The maleimide ring opening process was monitored via reduced LCMS. Once the conjugated maleimide hydrolysis was completed, the resulting ADCs were buffer exchanged into basic tris pH 8.0-8.5 buffer or acidic histidine-acetate pH 5.0-6.5 buffer via dialysis.
LCMS method to monitor and determine maleimide hydrolysis. LC-MS analysis was carried out under the following measurement conditions: • LC-MS system: Vanquish Flex UHPLC and Orbitrap Exploris 240 Mass Spectrometer • Column: MAbPac™ RP, 2.1*50 mm, 4 μm, 1,500 Å, Thermo Scientific™ • Column temperature: 80° C. • Mobile phase A: 0.1% formic acid (FA) aqueous solution • Mobile phase B: Acetonitrile solution containing 0.1% formic acid (FA) • Gradient program 1: 25% B-25% B (0 min-2 min), 25% B-50% B (2 min-18 min), 50% B-90% B (18 min-18.1 min), 90% B-90% B (18.1 min-20 min), 90% B-25% B (20 min-20.1 min), 25% B-25% B (20.1 min-25 min) • Gradient program 2 • Injected sample amount: 2 μg • MS parameters: Intact and denaturing MS data were acquired in HMR mode at setting of R=15k and deconvolved using the ReSpect™ algorithm and Sliding Window integration in Thermo Scientific™ BioPharma Finder™ 4.0 software.
Results for ring opening times measured by the LCMS method described above for monitoring ring hydrolysis are presented in Table 3 as RO T1/2 (h) (i.e., the time, in hours, for 50% of the maleimide rings to open).
Conjugator-antibody conjugate maleimide hydrolysis (ring opening) kinetics are presented in FIGS. 1A-1L, Table 3 (for pH 7.0 reaction conditions, hydrolysis T1/2), and Table 5. The data in Table 5 was generated by the LCMS method described above and includes the time, in hours, for the maleimide ring to open in more than 95% of the conjugators, after antibody conjugation (“RO Completed Time (>95%) (h)”). The results for conjugator-antibody conjugate 3-1 indicate that after 24 hours, about 0% of maleimide rings were open; the results for conjugator-antibody conjugate 3-3 indicate that after 24 hours, about 28% of maleimide rings were open.

[2] = Conjugator-antibody conjugate stability in pH 7.4 and 8.0 buffer with and without GSH; conditions: incubation 20 h;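 also: conjugate hydrolysis tracked by LC-MS analysis of reduced samples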
[3] = Conjugator-antibody conjugate stability in formulation buffer (pH 5.5 20 mM histidine buffer); conditions: pH 5.5, 22 °C
Experimental: After the conjugation and hydrolysis steps described above (see “DAR8 antibody drug conjugate/conjugator-antibody conjugate preparation”), conjugator-antibody conjugates were incubated in formulation buffer (pH 5.5 20 mM histidine buffer) or glutathione (GSH) buffer (pH 7.4 or 8.0), […] Hydrolysis status was monitored via reduced LCMS. Results are presented in Table 6, Table 7, and FIGS. 2A-23B.

[4] = Conjugator-antibody conjugate maleimide hydrolysis (ring opening) kinetics by reduced LCMS; conditions: pH 7, time point 96 h

## CN(C)C(=O)CCNC(=O)OCC(CCN)N1C(=O)C=CC1=O (centres unmarked) [3-11]
[1]; buffer, pH 7.0, time for 50% of the maleimide rings to open, read-out: RO T1/2 (converted)
  half-life: 14 h
[1]; pH 7, time point 1 h
  MS DAR: 8
  RO (%) HC: 3.41%
  RO (%) LC: 1.97%
  RO (%) Total: 3.05%
[1]; pH 7, time point 3 h
  MS DAR: 8
  RO (%) HC: 12.32%
  RO (%) LC: 6.37%
  RO (%) Total: 10.83%
[1]; pH 7, time point 5 h
  MS DAR: 8
  RO (%) HC: 31.72%
  RO (%) LC: 10.15%
  RO (%) Total: 26.33%
[1]; pH 7, time point 7 h
  MS DAR: 8
  RO (%) HC: 33.03%
  RO (%) LC: 14.6%
  RO (%) Total: 28.42%
[1]; pH 7, time point 24 h
  MS DAR: 8
  RO (%) HC: 84.46%
  RO (%) LC: 68.64%
  RO (%) Total: 80.51%
[1]; pH 7, time point 96 h
  MS DAR: 8
  RO (%) HC: 96.94%
  RO (%) LC: 89.26%
[1]; pH 7, time for the maleimide ring to open in more than 95% of the conjugators
  RO Completed Time (>95%): 96 h
[2]; pH 7.4, 22 °C
  MS DAR: 8.00
[2]; pH 7.4, 37 °C
  MS DAR: 8.00
[2]; pH 8.0, 22 °C
  MS DAR: 8.00
[3]; incubation 168 h
  MS DAR-T = 168 h: 8.00
  Maleimide ring opening ratio (%) at T = 168 h: 96.99%
[3]
  MS DAR-T = 0 h: 8.02
[4]
  RO (%) Total: 95.02%
